B1: PKD2L1 (parent)
chain: TLARCAKDILGFAVMFFIVFFAYA

Variants of: B1
Test: protein stability index of a GFP-peptide fusion (GPS, HEK-293T) (PSI 1-6); higher = more stable
Conditions: c terminus: a fixed tail appended
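Also: lentivirally expressed fusions sorted by FACS into six bins by GFP to DsRed ratio, PSI derived from sequencing read proportions per bin multiplied by bin number.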

Protein stability index, by site and new letter:
K7: F 2.78, A 2.16, D 3.17, E 2.36, H 3.13, G 2.45, R 2.29, M 2.47, V 4.08, Q 3.71, W 2.57, Y 3.79, T 2.83, P 2.84, I 2.36
D8: M 2.76, F 2.33, K 2.07, T 3.06, A 2.77, H 2.66, I 2.56, P 2.25, G 2.75, W 2.88, Y 2.7, E 2.21, V 2.33, R 2.06, Q 1.51, N 1.91, S 1.98, C 2.56, L 2.47
C5: G 2.59, A 2.49, E 2.09, N 1.9, P 1.71, V 2.5, H 1.6, L 2.78, R 2.01, Y 2.22, K 2.48, S 2.27, D 2.61, T 4.06, M 3.55, Q 2.29, F 4.37, I 3
R4: P 2.65, K 2.6, A 2.72, Q 2.37, F 2.68, W 3.31, L 3.07, I 2.64, C 2.28, G 3.84, Y 3.28, N 2.79, V 4.36
T1: A 2.36, D 2.96, I 2, K 3.97, W 1.62, M 4.2, S 2.19, H 2.29, N 2.67, C 2.98, F 3.18, P 2.03, V 2.81, R 1.72, L 2
I9: H 2.46, E 1.46, F 3.86, M 3.48, C 3.32, K 1.22, N 1.69, G 2.66, T 1.58, A 2.44, L 1.58, Y 1.94, Q 1.84, R 1.74, W 2.43, S 2.6, P 1.93, D 1.64, V 2.24
L2: E 2.8, M 3.8, C 3.44, W 1.67, V 1.24, K 1.84, T 4.12, Q 3.4, Y 2.51, N 2.5, P 3.29, R 3.68, H 2.35, D 3.71, G 3.03, A 3.81, S 2.73
L10: W 2.49, P 3.1, M 2.61, V 2.92, A 2.38, N 1.82, F 1.91, I 2.42, H 1.83, R 2.54, C 2.79, G 2.03, S 1.84, Q 3.08, Y 2.38, T 3.28
A6: T 3, N 3.44, Y 3.06, M 2.09, E 3.58, C 2.87, W 2.75, G 1.59, F 2.64, I 2.69, K 3.02, L 4.57, H 2.59, V 2.95, P 3.24
A3: E 3.11, V 1.94, L 1.75, R 1.81, N 1.53, K 2.74, H 2.4, W 1.87, C 2.83, T 3.62, I 4.3, G 1.71, P 2.64, Y 4.87, Q 2.7, D 2.56
G11: C 2.06, A 1.41, D 2.28, E 3.51
